Among the data in patent publication US20220259593A1, “CONTROL OF MAMMALIAN GENE DOSAGE USING CRISPR” (The Regents of the University of California, priority 2019, published 2022) are Mean relative activity values, retold here.

The data set concerns K562 CRISPRi cells. In words: Constant region variant library pooled growth screen, K562. Format: cell-based, human. The following applies: sgRNA constant region variants; activity relative to the original, un-modified constant region cr995. A digest of the protocol: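 Pooled library transduced into K562 CRISPRi cells in duplicate, puromycin-selected, grown at >2000× coverage and sampled after 4 to 8 days. Phenotypes per targeting sequence:constant region pair were normalized to the unmodified-scaffold pairing to give relative activity.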

Numbering of substitutions follows the chain as printed.

B1: cr891 (nucleic acid)
guide: GTTTAAGAGCTAAGCTGGAAACAGCATAGCAAGTTTAAATAAGACTAGTTCGTTATCAACTTGAAAAAGTGGTACCGAGTCGGTACT
modifications: listed as DNA, chemistry not fully specified
Molecule B1 registered a Mean relative activity of 0.8641.

B2: cr521 (nucleic acid)
guide: B1 guide with A44G, A47G, T50C, T73C, A78T, A85G
modifications: listed as DNA, chemistry not fully specified
Regarding B2, the Mean relative activity came out at 0.8638.

B3: cr022 (nucleic acid)
guide: B1 guide with A8T, A44G, T50C, T73C, A85G
modifications: listed as DNA, chemistry not fully specified
Molecule B3 registered a Mean relative activity of 1.058.

B4: cr676 (nucleic acid)
guide: B1 guide with A44G, T50C, A64G, G71T, T73C, A85G
modifications: listed as DNA, chemistry not fully specified
Turning to B4, the Mean relative activity was 0.8506.

B5: cr495 (nucleic acid)
guide: B1 guide with A44G, T50C, T73C, T80A, A85G
modifications: listed as DNA, chemistry not fully specified
The molecule B5 showed a Mean relative activity of 0.8462.

B6: cr590 (nucleic acid)
guide: B1 guide with A44G, T50C, A65C, T73C, T80C, A85G
modifications: listed as DNA, chemistry not fully specified
As for B6, the Mean relative activity is reported as 0.8361.

B7: cr554 (nucleic acid)
guide: B1 guide with A32G, A44G, T50C, T56C, G71A, T73C, A85G
modifications: listed as DNA, chemistry not fully specified
On to B7, for which the Mean relative activity is listed as 0.8332.

B8: cr865 (nucleic acid)
guide: B1 guide with A44G, T50C, A59T, T73C, A85G
modifications: listed as DNA, chemistry not fully specified
The molecule B8 showed a Mean relative activity of 0.8637.

B9: cr289 (nucleic acid)
guide: B1 guide with A44G, T50C, T62G, A67C, T73C, A85G
modifications: listed as DNA, chemistry not fully specified
B9 gave a Mean relative activity of 1.102.

B10: cr688 (nucleic acid)
guide: B1 guide with A44G, T50C, A65T, T73C, T80C, A85G
modifications: listed as DNA, chemistry not fully specified
In the case of B10, the Mean relative activity is listed as 0.848.

B11: cr914 (nucleic acid)
guide: B1 guide with T73G, A85C
modifications: listed as DNA, chemistry not fully specified
B11 had a Mean relative activity of 0.8494.

B12: cr878 (nucleic acid)
guide: B1 guide with A44G, C45T, G48A, T50C, C60T, G69A, T73C, C75T, G83A, A85G
modifications: listed as DNA, chemistry not fully specified
Turning to B12, the Mean relative activity is 0.847.

B13: cr435 (nucleic acid)
guide: B1 guide with A31C, A44G, T50C, T53G, T73C, A85G
modifications: listed as DNA, chemistry not fully specified
In turn, B13 registered a Mean relative activity of 0.8281.

B14: cr162 (nucleic acid)
guide: B1 guide with A44G, T50C, T73C, T84A, A85G
modifications: listed as DNA, chemistry not fully specified
On to B14, for which the Mean relative activity is 0.8263.

B15: cr788 (nucleic acid)
guide: B1 guide with G29T, A44G, T50C, T73C, A85G
modifications: listed as DNA, chemistry not fully specified
B15 showed a Mean relative activity of 0.8617.

B16: cr169 (nucleic acid)
guide: B1 guide with A44G, T50C, A65G, T73C, T80C, A85G
modifications: listed as DNA, chemistry not fully specified
In turn, B16 gave a Mean relative activity of 0.8454.

B17: cr960 (nucleic acid)
guide: B1 guide with A44G, T50C, A59T, C60A, G69T, T70A, T73C, A85G
modifications: listed as DNA, chemistry not fully specified
Consider B17, for which the Mean relative activity was 0.8446.

B18: cr785 (nucleic acid)
guide: B1 guide with A44G, T46G, T50C, T73C, A85G, T87G
modifications: listed as DNA, chemistry not fully specified
As to B18, the Mean relative activity came out at 0.8378.

B19: cr816 (nucleic acid)
guide: B1 guide with A44G, T50C, G71T, T73C, A85G
modifications: listed as DNA, chemistry not fully specified
Consider B19, for which the Mean relative activity stood at 0.8315.

B20: cr943 (nucleic acid)
guide: B1 guide with A44G, T50C, G72A, T73C, C75A, G83T, A85G, C86T
modifications: listed as DNA, chemistry not fully specified
Take B20: the Mean relative activity amounted to 0.8464.

B21: cr319 (nucleic acid)
guide: B1 guide with A42G, A44G, T50C, A65G, T73C, A85G
modifications: listed as DNA, chemistry not fully specified
B21: the Mean relative activity worked out at 0.8419.

B22: cr647 (nucleic acid)
guide: B1 guide with C25G, A44G, T50C, T73C, A85G
modifications: listed as DNA, chemistry not fully specified
On to B22, for which the Mean relative activity is 0.8408.

B23: cr370 (nucleic acid)
guide: B1 guide with A44G, T50C, A65G, T73C, C76G, G82C, A85G
modifications: listed as DNA, chemistry not fully specified
B23 came in with a Mean relative activity of 0.8417.

B24: cr717 (nucleic acid)
guide: B1 guide with A44G, C45T, G48A, T50C, A59G, T70C, T73C, A85G
modifications: listed as DNA, chemistry not fully specified
As for B24, the Mean relative activity is reported as 1.056.

B25: cr543 (nucleic acid)
guide: B1 guide with T35C, A44G, T50C, T73C, A85G
modifications: listed as DNA, chemistry not fully specified
B25 yielded a Mean relative activity of 0.8231.

B26: cr899 (nucleic acid)
guide: B1 guide with A59G, T70C
modifications: listed as DNA, chemistry not fully specified
B26 had a Mean relative activity of 0.8583.

B27: cr871 (nucleic acid)
guide: B1 guide with A44C, T50G, T73C, A85G
modifications: listed as DNA, chemistry not fully specified
Molecule B27 registered a Mean relative activity of 0.8313.

B28: cr829 (nucleic acid)
guide: B1 guide with G29C, A44G, T50C, T73C, A85G
modifications: listed as DNA, chemistry not fully specified
Consider B28, for which the Mean relative activity is 0.8571.

B29: cr407 (nucleic acid)
guide: B1 guide with A44C, T50G, T61C, A68G, T73C, C75T, G83A, A85G
modifications: listed as DNA, chemistry not fully specified
Turning to B29, the Mean relative activity stood at 0.8278.
